Data reported in paper PMC2133042.
Where “and” joins values, the source holds several entries; their conditions need not be identical. Equal entries are not always repeated.

Tests used:
[1] = biological target: KKAA construct (myc-tagged ERGIC-53 with its cytoplasmic tail mutated to R2A6KKAA) (human)
[2] = biological target: T1, KKFF (myc-tagged wild-type ERGIC-53) (human), P49257; settings: remark: other sources report otherwise
T1 chain: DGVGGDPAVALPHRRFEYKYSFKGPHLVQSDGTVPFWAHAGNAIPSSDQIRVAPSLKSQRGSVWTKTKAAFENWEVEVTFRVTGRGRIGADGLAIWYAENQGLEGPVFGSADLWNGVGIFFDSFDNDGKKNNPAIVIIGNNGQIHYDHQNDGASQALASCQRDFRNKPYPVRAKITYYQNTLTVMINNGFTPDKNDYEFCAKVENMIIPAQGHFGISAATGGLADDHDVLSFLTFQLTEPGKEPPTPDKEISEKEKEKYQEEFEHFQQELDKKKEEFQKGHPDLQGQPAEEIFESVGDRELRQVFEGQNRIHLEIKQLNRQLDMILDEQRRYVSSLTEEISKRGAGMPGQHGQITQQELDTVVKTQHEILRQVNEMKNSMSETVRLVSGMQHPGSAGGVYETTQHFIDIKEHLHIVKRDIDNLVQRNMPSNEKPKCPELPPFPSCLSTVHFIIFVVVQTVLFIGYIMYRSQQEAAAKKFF

Q: With “KKAA construct (myc-tagged ERGIC-53 with its cytoplasmic tail mutated to R2A6KKAA) (natural protein)” as the molecule, how does the stoichiometry N [1] read?
A: Its stoichiometry N is 2 and 6.

B1: KKFF (myc-tagged wild-type ERGIC-53), P49257 31-510 (natural protein)
chain: DGVGGDPAVALPHRRFEYKYSFKGPHLVQSDGTVPFWAHAGNAIPSSDQIRVAPSLKSQRGSVWTKTKAAFENWEVEVTFRVTGRGRIGADGLAIWYAENQGLEGPVFGSADLWNGVGIFFDSFDNDGKKNNPAIVIIGNNGQIHYDHQNDGASQALASCQRDFRNKPYPVRAKITYYQNTLTVMINNGFTPDKNDYEFCAKVENMIIPAQGHFGISAATGGLADDHDVLSFLTFQLTEPGKEPPTPDKEISEKEKEKYQEEFEHFQQELDKKKEEFQKGHPDLQGQPAEEIFESVGDRELRQVFEGQNRIHLEIKQLNRQLDMILDEQRRYVSSLTEEISKRGAGMPGQHGQITQQELDTVVKTQHEILRQVNEMKNSMSETVRLVSGMQHPGSAGGVYETTQHFIDIKEHLHIVKRDIDNLVQRNMPSNEKPKCPELPPFPSCLSTVHFIIFVVVQTVLFIGYIMYRSQQEAAAKKFF
Q: How did the stoichiometry N [2] turn out when B1 was run?
A: The stoichiometry N was 2 and 6.
